Measurements as given in US20160030544A1.

Molecular target: fH6-7 (factor H CCP domains 6-7) (UniProt P08603)
Test: SPR, Biacore 3000, protein on CM5 chip, fH6-7 as analyte

fH6-7 (factor H CCP domains 6-7), sequence (P08603 321-443 limits assumed): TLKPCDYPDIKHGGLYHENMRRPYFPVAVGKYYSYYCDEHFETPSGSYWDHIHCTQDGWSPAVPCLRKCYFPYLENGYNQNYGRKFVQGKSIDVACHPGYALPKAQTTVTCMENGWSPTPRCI

V3.45 fHbp (variant 3 factor H binding protein of N. meningitidis), recombinant wild type
Kd: 1 nM
